Laboratory results from CN116724049A (UNIV KOELN; PHILIPPS UNIV T MARBURG, dated 2023).

B1: MnC4t2p1_B3 (antibody, V domains shown)
VH: EVQLVESGGHLVQPGRSLRLSCAASGFTFDDYAMHWVRQVPGKGLEWVSGISWNGGILDYADSVKGRFTISRDNAKNSLYLHMRSLRTDDTALYYCAKDLRRQDYYADWYFDLWGRGTLVTVSS
VL: DIQMIQSPSSVSASVGDRVTITCRASQGISSWLAWYQQKPGKAPKLLIYAASTLLSAVPSRFSGSGSGTDFTLTISSLQPEDFATYYCQQGNSFPFTFGPGTIVDV
B2: MnC2t1p1_A3 (antibody, V domains shown)
VH: EVQLVESGGGLVQPGGSLRLSCAASGFTVSSNYMSWVRQAPGRGLEWVSVIYSGGSTFYADSVKGRFTISRDNSKNTLYLQMNSLRPEDTAVYYCATGARFGESPFDYWGQGTLVTVSS
VL: DIQMTQSPSSVSASVGDRVTITCRASQGISSWLAWYQQKPGKAPKLLIYAASSLQSGVPSRFSGSGSGTDFTLTISSLQPEDFATYYCQQANSFPGTFGQGTKVEIK
B3: MnC2t2p1_C11 (antibody, V domains shown)
VH: QVQLVQSGAEVKKPGSSVKVSCKASGGTFSRYTIIWVRQAPGQGLEWMGRIIPILDIANYAQKFQGRVTITADKSTSTAYMELSSLRSEDTAVYYCAREGGLDYFGSRNSGWTYTWFDPWGQGTLVTVSS
VL: DIQMTQSPSSLSASVGDRVTITCRASQNISSYLNWYQQKPGKAPNLLIYAASSLQSGVPPRFSGSGSGTDFTLTISSLQPEDFATYYCQQSYSTLYSFGQGTKLEIK
B4: FnC1t2p1_D4 (antibody, V domains shown)
VH: QVQLVQSGSELKKPGASVKVSCKASGYTFLRFAMNWLRQAPGQGLEWMGWIDTNTGTPTYAQGFTGRFVFSLDTSVSTAYLQISSLKAEDTAVYYCARSLRGANLVPWGQGTLVTVSS
VL: DIQMTQSPSSLSASVGDRVTITCQASQDVSNYLNWYQQQPGKAPKLLIYDAFNLETGVPSRFSGSGSGTDFTFTISSLQPEDIATYYCQQYDNLPLTFGGGTKVEIK
B5: FnC1t2p1_G5 (antibody, V domains shown)
VH: B4 VH
VL: B4 VL
B6: MnC4t2p2_A4 (antibody, V domains shown)
VH: QVQLVQSGSELKKPGASVKISCKASGYIFINYAMNWVRQAPGQGLEWMGWINTNTGNPTYAQDFTGRFVFSLDTSLSTAYLQISSLEAEDTAVYYCAKIGSRNSLGVWGQGTLVTVSA
VL: EIVLTQSPGTLSLSPGERATLSCRASHSVDRSYLAWYQQKPGLAPRLLIYGASSRATGIPDRFSGSGSGTDFTLTISRLEPEDFALYYCQHFGTSSVTFGRGTRLEIK

Biological target: SARS-CoV-2的刺突(S)蛋白的受体结合结构域(RBD) (SARS-CoV-2, UniProt P0DTC2 319-541)

Binder | Kd [nM]
B1 | 0.09
B2 | 0.7
B3 | 0.02
B4 | 0.2
B5 | 0.1
B6 | 14
